According to article PMC6891901:

Tested on: T1, KH9-OEP34 (CTP) (synthetic)
T1 sequence: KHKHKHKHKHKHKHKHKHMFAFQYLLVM
Assay: free peptide quantification
Settings: in water; N/P 0.5-5.0; value stated as up to 64%; pDNA/CTP complexes formed in water, N/P 0.1-25, agarose gel EMSA; pH, salt and temperature not given in the material

Substance: pPpsbA::Rluc
- binding signal (% of CTP bound (maximum)): 64
